Substrate in data set [1]: OC[C@H]1O[C@@](CO)(O[C@H]2O[C@H](CO)[C@@H](O)[C@H](O)[C@H]2O)[C@@H](O)[C@@H]1O
As to the kind of experiment: coupled hexokinase / glucose-6-phosphate dehydrogenase assay of released glucose; Michaelis-Menten fit. It is filed as biochemical, Trichomonas vaginalis. Particulars: 20 mM sodium acetate, pH 5.0, 30 °C, ~27 nM enzyme. From the text: coupled hexokinase / glucose-6-phosphate dehydrogenase assay of released glucose; Michaelis-Menten fit on T. vaginalis β-fructofuranosidase

Substrate in data set [2]: OC[C@H]1O[C@H](OC[C@H]2O[C@H](O[C@]3(CO)O[C@H](CO)[C@@H](O)[C@@H]3O)[C@H](O)[C@@H](O)[C@@H]2O)[C@H](O)[C@@H](O)[C@H]1O
As to the kind of experiment: coupled hexokinase / glucose-6-phosphate dehydrogenase / phosphoglucose isomerase assay of released fructose; Michaelis-Menten fit. The class given is biochemical, Trichomonas vaginalis. Particulars: 20 mM sodium acetate, pH 5.0, 30 °C, ~27 nM enzyme. An excerpt: coupled hexokinase / glucose-6-phosphate dehydrogenase / phosphoglucose isomerase assay of released fructose; Michaelis-Menten fit on T. vaginalis β-fructofuranosidase

B1: T. vaginalis β-fructofuranosidase (Trichomonas vaginalis G3) (protein)
chain: MNFSSRLKFHFEPLKGWMNDPNGLIQFKGEYHAFFQHYPFDTKWGPMHWGHATSKDLIHWEHKPIALYPDQEYENNGGCFSGSAIEFNDKLHIFYTGVGKSNGQSQCHAVMQDENRFIKDPKNPIIKSPPIEYGINDFRDPKVVKIENTFYMVVGTGKDGIGRVLLYKSSNLENWTFLNLLVEGKEYGQCCECPDLIQIDNQFFLMFSQMTGQGIGTLFFHLKYENGTFTVDKKLNQPIIGPDFYAPQTFHDDKGRRIIIGWLYNWKRVPPKEVDYAGAFTIPCELKYKEGKIVVNPIDEISHELKSESKFVEIQENKLIINGKPSVIHEGKIENIKILEDVKTIEVWINNGEFYYSTWLF
notes: E. coli BL21(DE3); IMAC; calculated 44 kDa
A word on the Km: it is the concentration of substrate that gives half-maximal velocity. For orientation: Vmax means the top rate of the reaction or transport when substrate is in excess. Usually kcat stands for the maximal rate divided by the concentration of active sites. Consider B1, for which, in data set [1], the Km stood at 20.6 ± 2.2 mM, the Vmax amounted to 1580 µmol/min/mg and the kcat was 1160 ± 36 s⁻¹. In addition, in data set [2], the Km turned out to be 5.5 ± 0.9 mM, the Vmax was 368 µmol/min/mg and the kcat was 270 ± 12 s⁻¹.
